Columns and labels:
[1] = test system: NC(=O)C1=CN([C@@H]2O[C@H](COP(=O)(O)OP(=O)(O)OC[C@H]3O[C@@H](n4cnc5c(N)ncnc54)[C@H](O)[C@@H]3O)[C@@H](O)[C@H]2O)C=CC1; experiment: purified protein; conditions: NADH co-substrate, pH 8, 25 °C, in vitro flavinated, recalculated to FMN saturation, except NADH varied (0.015 to 0.3 mM), co-substrate GTN
[2] = target: OPR3 (Solanum lycopersicum) (UniProt Q9FEW9); conditions: cited from earlier work
[3] = target: XdpR, TetR family transcriptional regulator of the xdo operon (Agrobacterium bohemicum R89-1); experiment: SEC + native gel or EMSA; gel filtration; native (blue native, 7% PAGE) and SDS electrophoresis
XdpB (XdpBwt) [4] = target: T1, XdpB (XdpBwt) (Agrobacterium tumefaciens, UniProt A0A0A0VDJ9); experiment: spectrophotometric NADH oxidation at […] nm, Lineweaver-Burk; conditions: read-out: Km^GTN; NADH co-substrate; pH 8; 25 °C; in vitro flavinated, recalculated to FMN saturation
[5] = target: XdpA, short chain dehydrogenase of the xdo operon (Agrobacterium bohemicum R89-1); experiment: SEC; gel filtration chromatography, with SDS PAGE for the subunit
XdpB (XdpBwt) [6] = target: T1, XdpB (XdpBwt); experiment: nanoDSF melting temperature; type: binding; design: full length with N-terminal His tag (XdpBwt), made in E. coli, Ni-NTA and gel filtration; in vitro flavinated with FMN for kinetics; C-terminal residue Asn365; conditions: apo form Tm 38.9 °C, 1 °C/min

T1 sequence (A0A0A0VDJ9 entry or part of it): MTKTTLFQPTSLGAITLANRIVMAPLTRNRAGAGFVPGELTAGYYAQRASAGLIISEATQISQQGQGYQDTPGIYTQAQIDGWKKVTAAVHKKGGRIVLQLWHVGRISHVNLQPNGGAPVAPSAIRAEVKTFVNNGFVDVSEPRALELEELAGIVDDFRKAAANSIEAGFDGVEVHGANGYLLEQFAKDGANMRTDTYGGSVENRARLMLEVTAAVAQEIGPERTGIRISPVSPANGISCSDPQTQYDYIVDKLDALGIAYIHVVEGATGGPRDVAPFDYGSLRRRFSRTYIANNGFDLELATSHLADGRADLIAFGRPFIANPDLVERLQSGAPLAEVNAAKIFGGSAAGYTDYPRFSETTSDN
OPR3, sequence (Q9FEW9 whole entry): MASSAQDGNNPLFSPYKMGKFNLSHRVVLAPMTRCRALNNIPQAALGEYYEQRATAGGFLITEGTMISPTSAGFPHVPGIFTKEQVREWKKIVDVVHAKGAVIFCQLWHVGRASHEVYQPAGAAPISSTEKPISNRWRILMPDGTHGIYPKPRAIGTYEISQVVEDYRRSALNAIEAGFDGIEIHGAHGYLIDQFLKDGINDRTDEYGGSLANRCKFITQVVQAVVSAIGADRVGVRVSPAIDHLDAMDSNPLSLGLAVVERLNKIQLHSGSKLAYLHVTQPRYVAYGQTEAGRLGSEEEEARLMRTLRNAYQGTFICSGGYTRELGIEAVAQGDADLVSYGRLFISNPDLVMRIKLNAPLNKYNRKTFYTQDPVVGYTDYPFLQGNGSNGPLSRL

## XdpB (XdpBwt) (Agrobacterium tumefaciens)
[1]
  Km: 6 ± 1 µM

## OPR3 (from UniProt Q9FEW9)
[2]
  Kd: 30 µM

## XdpR, TetR family transcriptional regulator of the xdo operon (natural protein)
[3]
  stoichiometry N: 2

## O=[N+]([O-])OCC(CO[N+](=O)[O-])O[N+](=O)[O-] [GTN, glycerol trinitrate]
XdpB (XdpBwt) [4]
  Km: 460 ± 132 µM

## XdpA, short chain dehydrogenase of the xdo operon (enzyme)
[5]
  stoichiometry N: 2

## Cc1cc2nc3c(=O)[nH]c(=O)nc-3n(C[C@H](O)[C@H](O)[C@H](O)COP(=O)(O)O)c2cc1C [FMN, flavin mononucleotide]
XdpB (XdpBwt) [6]
  melting temperature of in vitro flavinated form: 39.8 °C
